Reference: patent US20260275304A1, “METHODS AND COMPOSITIONS FOR GLYPHOSATE TOLERANCE IN PLANTS” (Monsanto Technology LLC, priority 2023, published 2026)
Changes are numbered by the printed parent chain. Names may count otherwise.

Key:
[1] = tested on: wild-type S. cerevisiae BY4741; assay: Growth of wild-type yeast in glyphosate; assay type: cell-based, Saccharomyces cerevisiae; conditions: 5 mM and 10 mM glyphosate
Text: Previous research has primarily focused on E. coli as a chassis for selecting improved EPSP synthases. The present example details the development of S. cerevisiae as a model eukaryotic system for glyphosate resistance, thus requiring synthetically addicting this cell to the expression and activity of EPSPS in an effort to create a growth-based selection scheme. Yeast have previously been reported to be resistant to glyphosate.

[2] = tested on: S. cerevisiae strain sKR-024; assay: Growth of synthetic yeast strain sKR-024 expressing EPSPS variants with or without glyphosate; assay type: cell-based, Saccharomyces cerevisiae; conditions: for glyphosate tolerance in synthetic yeast host: mutants isolated from directed evolution
Method: EPSPS variants were re-cloned into a clean p416-Core1p backbone and transformed into strain sKR-024 as described above. Colonies were then picked in triplicate into YSC-Ura-Leu and outgrown for 2 days at 30° C. Cultures were then diluted back to OD 0.001 in yeast minimal media (YMM) containing varying amounts of glyphosate as indicated. Growth rate measurements were then obtained using an Infinite M200 PRO microplate reader (Tecan, Männedorf, Switzerland) with incubation at 30° C. for 72-120 hours depending on growth rate of selected variants.
To determine if this system could further corroborate observations from previous literature, the well-studied EPSPS mutants T102I and P106S, and the combined double mutant TIPS (T102I-P106S) were generated and complemented into this yeast system. These mutations were reported to result in varying degrees of glyphosate resistance.
Having established low copy number and weak promoter expression of EPSPS variants, it was sought to recharacterize phenotypes under field conditions that are used in planta. […] It has been reported previously that under standard glyphosate foliar application, 0.3 mM or more of glyphosate (gly) can accumulate in a plant's root nodules and meristems. […] These trends support reported literature of mutants P106S and TIPS grown in various plant hosts. As a result, the present synthetic yeast model system closely resembles in planta observations and thus can be used to select for dual-trait EPSPS variants aimed at both enzymatic efficiency and glyphosate resistance.
Select mutants isolated from the final directed evolution campaign with the improved selection strategy were further evaluated in assorted glyphosate concentrations to determine growth characteristics. Mutants isolated from an EPSPS background were evaluated in media containing 0 mM and 0.25 mM glyphosate with the latter being the concentration at which wild-type EPSPS cannot grow after 100 hours. […] The non-glyphosate mono selection highlighted in blue represents mutations resulting from 5 subcultures in 0 mM glyphosate. The low glyphosate dual selection highlighted in light green represents mutants resulting from an additional subculture into 0.5 mM glyphosate. Lastly, the high glyphosate dual selection highlighted in dark green represent mutations isolated after subcultures in increasing levels of glyphosate, up to 10 mM.

transgenic maize plants [3] = assay: Maize transformation with glyphosate selection, plantlet recovery and quality checks; assay type: in vivo, Zea mays; conditions: for Number of young plants passing quality control checks: in vivo; for Number of plantlets generated: under glyphosate selection, same amount of starting material
Text: Maize was used as a model system to test the functionality of the EPSPS variants because of detailed previous characterization of glyphosate tolerance in maize and a suitable transgenic plant generation protocol that relies on glyphosate. Plant transformation vectors were generated in which the native maize EPSPS sequence was used, which includes the native gene promoter elements, the native introns and exons and the native 3′ untranslated region and introduced mutations that corresponded to each of the selected amino acid changes. The native sequence was used to mimic as closely as possible how the selected EPSPS variants would perform if the variants were introduced directly in the genome without the help of strong expression elements. The following variants were selected for testing in a transgenic maize system: TIPS (as a control); TIPS-P126S-M217L-K296R; TIPS-P126S-K296R; T102I-P126S-K296R (where only the T102I change is present); P106S-P126S-K296R (where only the P106S change is present); and P126S-K296R (where neither of the TIPS changes are present).
Transgenic maize plants that expressed each of the six EPSPS variants were generated to determine if the variants conferred glyphosate tolerance to plants. The full DNA sequence encoding TIPS EPSPS (SEQ ID NO:1) was cloned from maize genomic DNA. In this sequence, the promoter and 5′ UTR are nucleotides 1:2556; the chloroplast transit peptide sequence is nucleotides 2557:2742; EXON 1 is nucleotides 2743:2856; INTRON 1 is nucleotides 2857:3384; EXON 2 is nucleotides 3385:3626; INTRON 2 is nucleotides 3627:3725; EXON 3 is nucleotides 3726:3879; INTRON 3 is nucleotides 3880:4152; EXON 4 is nucleotides 4153:4367; INTRON 4 is nucleotides 4368:4877; EXON 5 is nucleotides 4878:4995; INTRON 5 is nucleotides 4996:5155; EXON 6 is nucleotides 5156:5366; INTRON 6 is nucleotides 5367:5446; EXON 7 is nucleotides 5447:5508; INTRON 7 is nucleotides 5509:5617; EXON 8 is nucleotides 5618:5836; and the 3′ UTR is nucleotides 5837:6368. Mutations were then introduced into the EPSPS coding sequence in order to produce each of the six EPSPS variants to be tested. These mutated full genomic DNA sequences were then each cloned as a single expression cassette into plant transformation vectors.
Agrobacterium tumefaciens-mediated plant transformation was performed using methods known in the art. Glyphosate selection was used to select for transgenic events containing the transgene of interest and further screened for only those EPSPS variants that provided effective glyphosate tolerance in a plant cell. While all six EPSPS variants began the transformation process with the same amount of starting maize cellular material, there were differences in the number of small plantlets recovered that were capable of being transplanted to greenhouse soil media (Table 4). Transgenic events were further analyzed to determine transgene copy number. Healthy events with single copy of the transgene of interest were grown in the greenhouse soil media. Only three of the six EPSPS variants had more than one plant surviving. Up to twenty-five of these developing R0 plants were transplanted to larger pots and allowed to grow to maturity for seed collection in the greenhouse.

transgenic maize plants [4] = assay: Greenhouse glyphosate spray test on hybrid (hemizygous) transgenic maize; assay type: in vivo, Zea mays
Method: To further evaluate the performance of EPSPS variants for glyphosate tolerance, transgenic maize plants comprising a single copy of the transgene encoding the EPSPS variants TIPS-P126S-M217L-K296R or TIPS-P126S-K296R were grown to maturity. Homozygous transgenic plants were crossed with an inbred line to produce hybrid seeds.
Plants from the hybrid seeds (hemizygous for the transgenes) of two independent transformation events for each of the two variants were grown in the greenhouse for glyphosate spray test. Roundup® PowerMax3, a commercial formulation of glyphosate, was applied at the third leaf stage at two rates: 1120 gram/hectare (1× the field rate) and 2240 gram/hectare (2× the field rate). The controls included an untreated untransformed control without glyphosate treatment, an untransformed control sprayed with glyphosate, and a TIPS positive control both sprayed with glyphosate. Glyphosate herbicide injury (plant stunting, chlorosis, necrosis, malformation, and death) was assessed by visual inspection of the plants 18 days after herbicide treatment. Herbicide injury rate was presented on a scale of 0 to 100 with “0” being no visible crop injury and “100” being complete crop injury or death.

Molecule: O=C(O)CNCP(=O)(O)O [glyphosate, N-phosphonomethylglycine]
- growth inhibition [1]: slight growth inhibition

B1: TIPS-P126S-M217L-K296R: maize EPSPS variant, SEQ ID NO:10 (protein)
chain: AGAEEIVLQPIKEISGTVKLPGSKSLSNRILLLAALSEGTTVVDNLLNSEDVHYMLGALRTLGLSVEADKAAKRAVVVGCGGKFPVEDSKEEVQLFLGNAGIAMRSLTAAVTAAGGNATYVLDGVSRMRERPIGDLVVGLKQLGADVDCFLGTDCPPVRVNGIGGLPGGKVKLSGSISSQYLSALLMAAPLALGDVEIEIIDKLISIPYVEMTLRLLERFGVKAEHSDSWDRFYIKGGQKYKSPKNAYVEGDASSASYFLAGAAITGGTVTVEGCGTTSLQGDVKFAEVLEMMGARVTWTETSVTVTGPPREPFGRKHLKAIDVNMNKMPDVAMTLAVVALFADGPTAIRDVASWRVKETERMVAIRTELTKLGASVEEGPDYCIITPPEKLNVTAIDTYDDHRMAMAFSLAACAEVPVAIRDPGCTRKTFPDYFDVLSTFVKN
modifications: Zea mays
- growth in yeast minimal media without glyphosate ([2]; 0 mM glyphosate): high growth in non-glyphosate
- glyphosate tolerance in synthetic yeast host [2]: high glyphosate tolerance
- glyphosate tolerance in synthetic yeast host ([2]; listed as TIPS P126S/M217L/K296R): high glyphosate tolerance (even higher than TIPS)
- Number of young plants passing quality control checks (transgenic maize plants [3]): 13
- Number of plantlets generated (transgenic maize plants [3]): 92
- tolerance to glyphosate (transgenic maize plants [4]; 2× field rate): full tolerance
- Average Injury At 1120 g/ha (transgenic maize plants [4]; Roundup PowerMax3, 1× field rate, 18 days after treatment, scale of 0 to 100): 0
- Average Injury At 2240 g/ha (transgenic maize plants [4]; Roundup PowerMax3, 2× field rate, 18 days after treatment, scale of 0 to 100): 0
- tolerance to glyphosate (transgenic maize plants [4]; equivalent 1× field dose): excellent tolerance

B2: P126S-K296R: maize EPSPS variant, SEQ ID NO:14 (protein)
chain: B1 chain with I102T, S106P, L217M
modifications: Zea mays
- Number of young plants passing quality control checks (transgenic maize plants [3]): 1
- Number of plantlets generated (transgenic maize plants [3]): 11
